Sequences and labels used below:
B1: DP47 VH S35D + Y32D (other, name in Kabat numbering)
VH: QVQLLESGGGLVQPGGSLRLSCAASGFTFSSDAMDWVRQAPGKGLEWVSAISGSGGSTYYADSVKGRFTISRDNSKNTLYLQMNSLRAEDTAVYYCAKSYGAFDYWGQGTLVTVSS
B2: DP47 VH T28D + S30D (other, name in Kabat numbering)
VH: B1 VH with T28D, S30D, D32Y, D35S
B3: DP47 VH S35D + S30D (other, name in Kabat numbering)
VH: B1 VH with S30D, D32Y
B4: DP47 VH T28D + S35D (other, name in Kabat numbering)
VH: B1 VH with T28D, D32Y
B5: DP47 VH T28D + Y32D (other, name in Kabat numbering)
VH: B1 VH with T28D, D35S
B6: DP47 VH T28D + A33D (other, name in Kabat numbering)
VH: B1 VH with T28D, D32Y, A33D, D35S
B7: DP47 VH S35D + A33D (other, name in Kabat numbering)
VH: B1 VH with D32Y, A33D
B8: DP47 VH S35D + S31D (other, name in Kabat numbering)
VH: B1 VH with S31D, D32Y
B9: DP47 VH T28D + S31D (other, name in Kabat numbering)
VH: B1 VH with T28D, S31D, D32Y, D35S
B10: DP47 VH A33D (other, name in Kabat numbering)
VH: B1 VH with D32Y, A33D, D35S
B11: DP47 VH S31E (other, name in Kabat numbering)
VH: B1 VH with S31E, D32Y, D35S
B12: DP47 VH Y32D (other, name in Kabat numbering)
VH: B1 VH with D35S
B13: DP47 VH A33E (other, name in Kabat numbering)
VH: B1 VH with D32Y, A33E, D35S
B14: DP47 VH Q39E (other, name in Kabat numbering)
VH: B1 VH with D32Y, D35S, Q39E
B15: DP47 VH G26E (other, name in Kabat numbering)
VH: B1 VH with G26E, D32Y, D35S
B16: DP47 VH T28D (other, name in Kabat numbering)
VH: B1 VH with T28D, D32Y, D35S
B17: DP47 VH S35D (other, name in Kabat numbering)
VH: B1 VH with D32Y
B18: DP47 VH T28E (other, name in Kabat numbering)
VH: B1 VH with T28E, D32Y, D35S
B19: DP47 VH Y32E (other, name in Kabat numbering)
VH: B1 VH with D32E, D35S
B20: DP47 VH S31D (other, name in Kabat numbering)
VH: B1 VH with S31D, D32Y, D35S
B21: DP47 VH S30E (other, name in Kabat numbering)
VH: B1 VH with S30E, D32Y, D35S
B22: DP47 VH A40D (other, name in Kabat numbering)
VH: B1 VH with D32Y, D35S, A40D
B23: DP47 VH Q39D (other, name in Kabat numbering)
VH: B1 VH with D32Y, D35S, Q39D
B24: DP47 VH A40E (other, name in Kabat numbering)
VH: B1 VH with D32Y, D35S, A40E
B25: DP47 VH S30D (other, name in Kabat numbering)
VH: B1 VH with S30D, D32Y, D35S
B26: DP47 VH S35E (other, name in Kabat numbering)
VH: B1 VH with D32Y, D35E
B27: DP47 VH G26D (other, name in Kabat numbering)
VH: B1 VH with G26D, D32Y, D35S
B28: DP47 VH S35G (other, name in Kabat numbering)
VH: B1 VH with D32Y, D35G
B29: DP47 VH T28R (other, name in Kabat numbering)
VH: B1 VH with T28R, D32Y, D35S
B30: DP47 VH S52D (other, name in Kabat numbering)
VH: B1 VH with D32Y, D35S, S52D
B31: DP47 VH S53D (other, name in Kabat numbering)
VH: B1 VH with D32Y, D35S, S54D
B32: DP47 VH G54D (other, name in Kabat numbering)
VH: B1 VH with D32Y, D35S, G55D
B33: DP47 VH A50D (other, name in Kabat numbering)
VH: B1 VH with D32Y, D35S, A50D

Numbering of substitutions follows the chain as printed. Names and notes keep the numbering of the source.

The first test addresses T1, protein A (UniProt P38507 37-477).
T1 construct: also called Protein A superantigen
Description: Heat/Cool phage ELISA: phage-displayed VH, 80 C 10 min then 4 C 10 min, captured on coated protein A; signal as % of untreated sample. On the procedure:
(§1) The aggregation-resistance of clones was analyzed by measuring retention of signal after heat incubation in a phage ELISA format (McCafferty et al., 1990; Jespers et al., 2004). Wells of a Nunc Maxisorp Immuno-plate were coated overnight with protein A at a concentration of about 5 μg/ml in phosphate-buffered saline (PBS). The plate was washed once with PBS and blocked with about 4% (w/v) milk powder diluted in PBS (MPBS). Single colonies were picked from agar plates and grown overnight in 2×TY medium (containing about 16 g/L tryptone; about 10 g/L yeast extract; about 5 g/L NaCl, pH 7.0) supplemented with about 15 μg/ml tetracycline shaking at about 30° C. Cells were removed by centrifugation and phages were biotinylated directly in the culture supernatant by adding biotin-PEO₄-N-hydroxysuccinimide (Pierce; about 50 μM final concentration). For heat selection, supernatant was first incubated at about 80° C. for about 10 min and then at about 4° C. for about 10 min. Supernatant was added to the blocked ELISA wells. After three washes with PBS, bound phage particles were detected using an Extravidin-HRP conjugate (Sigma) and 3,3′,5,5′-tetramethylbenzidine (TMB) substrate. Absorbance was calculated by subtracting measurements at 450 and 650 nm.
VH domains were produced comprising negatively charged amino acids at positions 28 and/or 35 in CDR1 of DP47 and at least one other position, as set out in Table 7. Aggregation-resistance of the VH domains was assessed using the “Heat/Cool” assay as described in Example 1.2.
Take B1: the “Retained binding to protein A (%)” value was determined as 61%.

As to B2, the “Retained binding to protein A (%)” value is 39.4%.

In the case of B3, the “Retained binding to protein A (%)” value was 43.5%. On to B4, for which the “Retained binding to protein A (%)” value amounted to 45.8%. For the molecule B5, the “Retained binding to protein A (%)” value is 64.7%. On the same count and under the same terms, with B6 the figure was 62%. For the molecule B7, the “Retained binding to protein A (%)” value stood at 40.3%. As for B8, the “Retained binding to protein A (%)” value worked out at 48.3%. The same measure, in the same setting: with B9 the figure was 44.8%.

Another test deals with T1, protein A. The test is described as above. This is another data set of the same source. On the procedure:
as §1
To identify additional residues in CDR1 that confer aggregation-resistance on VH, surface-exposed residues of DP47 between positions 26 to 35 (numbering according to the Kabat numbering system) were substituted for aspartic acid (D) or glutamic acid (E). Framework residues at positions 39 and 40 were also substituted for aspartic acid (D) or glutamic acid (E). […] Correctly folded VH were captured by protein A ELISA and the absorbance signal of the treated sample was calculated as a percentage of the untreated sample.
Take B10: the “Retained binding to protein A (%)” value was 10%. Take B11: the “Retained binding to protein A (%)” value worked out at 6.1%. Regarding B12, the “Retained binding to protein A (%)” value worked out at 41.8%. Regarding B13, the “Retained binding to protein A (%)” value was 2%. B14: the “Retained binding to protein A (%)” value was 2.5%. In the case of B15, the “Retained binding to protein A (%)” value was found to be 1.8%. For the molecule B16, the “Retained binding to protein A (%)” value is 25.1%.

As to B17, the “Retained binding to protein A (%)” value was 12.8%. The same measure, in the same setting: the same measure for B18: 6.5%; for B19: 24.8%; for B20: 21.3%.

As to B21, the “Retained binding to protein A (%)” value was 2.1%. Consider B22, for which the “Retained binding to protein A (%)” value was 2.8%. Consider B23, for which the “Retained binding to protein A (%)” value was found to be 3.7%. On to B24, for which the “Retained binding to protein A (%)” value is 1.9%. B25: the “Retained binding to protein A (%)” value came out at 21.8%. As for B26, the “Retained binding to protein A (%)” value came out at 4.5%.

As to B27, the “Retained binding to protein A (%)” value turned out to be 6.1%.

For a further test, the target named is T1, protein A. Described as above. This is another data set of the same source. The method, then:
as §1
Single amino acid changes in the CDR1 region of the DP47 VH domain, and combinations thereof, were constructed and tested for aggregation-resistance, as detailed above (see the Materials and Methods section). […] Correctly folded VH were captured by protein A ELISA and the absorbance signal of the treated sample was calculated as a percentage of the untreated sample.
Turning to B10, the “Retained binding to protein A” value was found to be 26%. In the case of B28, the “Retained binding to protein A” value is 4%. Regarding B19, the “Retained binding to protein A” value came to 41%. On to B20, for which the “Retained binding to protein A” value came out at 31%. The same measure, in the same setting: the same measure for B29: 2%.

The target in the next test is T1, protein A. The description is as above. This is another data set of the same source. The method, then:
as §1
To identify residues in CDR2 that confer aggregation-resistance on a VH containing protein aspartic acid (D) was substituted for surface-exposed residues within the putative CDR2 of DP47 VH with aspartic acid (positions 50, 52, 52a, 53, 54).
As for B30, the “Retained binding to protein A (%)” value is 3.9%. Turning to B31, the “Retained binding to protein A (%)” value was determined as 3.8%. For B32, the “Retained binding to protein A (%)” value is 1.3%. Take B33: the “Retained binding to protein A (%)” value came to 2.9%.

Values taken from patent US20160145328A1 (published 2016).
